The DeepSol protein solubility set

Test: soluble on expression in E. coli; label from the status in PepcDB or PDB records

Row | Sequence | soluble on expression in E. coli
1 | MSLADNRDELKETLRTLLRDNPDLVLEVLREHSETVLEIAQQGANQRRRKVLVAQWKTDLEDPKKVNLADRPVRGEANAPVTVVAYSDFTCPYCQQAAGTVEMLLANYKGKVRYVFKQMPLETHENARTASNYYVAASLQDPAKAWKLYEAVFADRDRLVTEGEPFLKKVAQEAGLDMQRLATDIKGRKVKALIEEDMAEARKLGVQGTPYFLVNDLVVRGALPLDLFSDAVDMALEKAGAKEGHHHHHH | soluble
2 | MSLADWQNLDPEAAREAEKYENPIPSRELILAHLSERGAPATRSQLLDEFGLAGEEPEEALRRRLRAMERDGQLIYTRRGAYAPVDKLDLIRGRISGHRDGFGFLIPDDGSDDLFLSPTQMRLVFDGDRALARVSGHDRRGRREGQLVEVIERAHEIVVGRYFEESGIGVVVADNPKIQQEVLIPPGKAGKARHNQFVQVRIEQWPSIHRQAQGEIVEVLGDYMAPGMEIEVALRSYDIPHVWPAAVEKEAAKLKPEVAEKDKEKRVDLRQVPFVTIDGEDARDFDDAVYAEAKRGGGWRLFVAIADVSHYVKVGSALDEEAARRGNSVYFPERVIPMLPEVLSNGLCSLNPLVDRLAMVCEMTLSKAGKLTGYQFYEAVIHSHARLTYTKVSQLLEHPDSVEAENLRQQLPGVVPHLQQLYALYKALLAGRHVRGAIDFETQETRIVFGADRKISEIRPTQRNDAHRLIEECMLCANVATARFLQKHAIPALYRVHDGPPQEKLNNLRQFLGELGLSLGRGKAAPTPGDYQELLEKIHDRADFRLIQTVMLRSLSQAVYSPDNNGHFGLNYDAYTHFTSPIRRYPDLLVHRAIRSVIRSKAETPHVQRAGAASMPKARIYPYDELRLDQLGEQCSMTERRADEATRDVTNWLKCEYMRERVGETFPGVITAVTGFGLFVELTDIFVEGLVHVTALPGDYYHFDAVHHRLSGERTGRSFRLGDTTEVVVARVDLDERKIDFELAGNVLSAPIGRKKRNGDKSANAGKAPKGRKGASVPEVDLEPALASPDAAVVPRRKAGKVQALPPVAPELLAQAAEMLGNTDVRKSREVKQALLAEARVGGKDKGGKKGKVVPAGKSAKGKAKDGKPAAAAKPGKPTKHRKGPSKPKADNAPAATGARKRKAKSEGHHHHHH | not soluble
3 | MSLAEAVAQGAFGKVISVRGSGARVGLLPSSRLVPSAVRATVGRFVSIRTASSTIIAIITEVSSENLAETDEHIAVASVDLLGEILPGPLRPKFQRGVTNYPTIGDSVDLISSDDLRIVYEPTGSDQIDVGTLQQDPSVIAYVDIEEMLSKHFAVLGSTGVGKSTGVSLLLNEILKSRPALRIFLLDVHNEYGRSFGDKALVLNPRNLKLPFWLFNFEEIVDVLFAGRPGVPEELDILAEVIPVAKGLYVQYTSTDRLGLKRVDPKSIGYTADTPVPYRLVDLISLIDERMGKLENRSSRIIYHKLISRIETVRNDPRYAFMFDNANVGGDTMADVISHLFRLPANGKPMTIMQLAGFPAEVVDSVVSVLCRMAFDFGLWSDGVSPLLFVCEEAHRYAAADRAIGFGPTRKAVSRIAKEGRKYGVYLGLVTQRPAELDATILSQCNTLFAMRLANDRDQSLLRSAVSDAAANLLSFVPSLGTREVLAFGEGVALPTRLRFKEVPAHQLPRSEAAISTVPSAAAGNDMHFVSAVLERWRGATSHRDVPNDPGIAERPLARTLDAPMLQPSLGLDPDRFSLLKKPLREGHHHHHH | soluble
4 | MSLAEKPKKPQKLRARLPRGLADRGPAEIAATRAMVEKIREVYERYGFEPVETPAFEYTDALGKFLPDQDRPNEGVFSLQDDDEQWISLRYDLTAPLARYVAENFDQLPKPHRSYRFGWVFRNEKPGPGRFRQFMQFDADTVGAPTAAADAEMCMMAADTMEALGIPRGSYVVKVNNRKVLDGVLESIGLGGDENAGRRLTVLRAIDKSDKFAPEEIKKLLGPGRWDGGEEGKGDFTKGAMLSDDQSELILRATSPSFIAGRFNADGSGGISNIDTVELLRSTADNETLKQGCDELAVIADLLDACGYGATSANPDVRVVIDPSVVRGLEYYTGPVYEVELLLDTKDEKGRPVRFGSVGGGGRYDGLVSRFRGEPVPATGFSIGVSRLQAALTLIGQLGNKPQAGPVVVTVFGGEIAGYQKMVATLRKAGIRAELYLGNPKHSLGQQMKYADKRNSPCAIIQGSDEKQQGIVQIKDLILGAELASLEKDRDEYLKKQAEAQFSCNEDEMVAKVQELLQRRGWRGGKGIITITTDPNSSSVDKLAAALEHHHHHH | soluble
5 | MSLAELDLTGGMDEARGDIADLLGKEERKILTTGNAEIDKKIADGLPLGSLTLIEGENDTGKSVLTQQFIWGSMHNNLRVDLFSTELTTKSFLTQMESMSLDISDFFAWGYIRLFHCHLVEFKWTPDAMNDILERIITHVKFSNTDVAIIDSLTIFTEYTTNEAVLTFLTQAKNICDQGKTILITMHSYAFTDEVLTRVRSICDAHLLLMRKLMGDKYVMVLEVVKVRGARKTTGNLVSFEVHPGYGMKIIPVSVAKVEGHHHHHH | soluble
6 | MSLAESVFAERIVQNLLDTDFYKLTMMQAVLHNYPNAEVEWEFRCRNAEDLRPYLAEIRYQIERLAEVEVTADQLAFLERIPFMKPDFIRFLSLFRFNLRYVHTGIEDGQLAIRLRGPWLHVILFEVPLLAIVSEVRNRYRYREVVLEQVGEQLYRKLDWLSAQASSEELAEFQVADFGTRRRFSYRTQEEVVHILKRDFPGRFVGTSNVHLAREYDLKPIGTMAHEWLMAHQQLGPRLVDSQQAALDCWVREYRGQLGIALTDCITMDAFLDDFDLYFAKLFDGLRHDSGDPLAWAEKAIAHYRRLGIDPLSKTLVFSDGLDMPKALQLFRALRGKINVSFGIGTNLTCDIPGVEPMNIVLKMTACNGHPVAKISDAPGKTQCRDENFVAYLRHVFNVPAEGHHHHHH | soluble
7 | MSLAFVCLAIGCLYTFLISTTFGCTSSSDTEIKVNPPQDFEIVDPGYLGYMYLQWQPPLSLDHFKECTVEYELKYRNIGSETWKTIITKNLHYKDGFDLNKGIEAKIHTMLPWQCTNGSEVQSSWAETTYWISPQGIPETKVQDMDCVYYNWQYLLCSWKPGIGVLLDTNYNLFYWYEGLDHALQCVDYIKADGQNIGCRFPYLEASDYKDFYICVNGSSENKPIRSSYFTFQLQNIVKPLPPVYLTFTRESSCEIKMKWSIPLGPIPARCFDYEIEIREDDTTLVTATVENETYTLKTTNETRQLCFVVRSKVNIYCSDDGIWSEWSDKQCWEGEDLSKKTEGHHHHHH | not soluble
8 | MSLAHKAKLKIIPLGGLNEIGKNMTVFEYGNDIIVVDCGLAFPDDEMLGIDLVIPDITYLLKNREKVKAIVLTHGHEDHIGALPYVLKQLNVPIYGTRLTIGLVEYKLKEHGLLRDSKLITVKPRETVEIGQFKVEFIRTSHSIADSAALAIHTPVGTVFHSGDFKIDFTPIDGEVPDLHRFAQLGEKGVLVMLCDSTNIERPGYTMSERTVGETFDNLFRKAEQRIIVATFASNIHRVQQIINSAQKYGRKVAISGRSMVNVVNVAMELGYLTVPEGLLIDLDEANKLPHNKVVIITTGSQGEPMSALTRMASSEHKKVEIVPGDTVIISASPIPGNERLISRVINQLFKKGANVIYEALADIHVSGHACQEEIKLLHTLIKPKFFIPVHGEYRHLVQHAKLAESLGMPPENIFVVDNGTVLEFTKEGHHHHHH | soluble
9 | MSLAHLAAMFDDLVARFGDRPAIVDDRALSYRELDLLVRKIAVSLAALGIGKGDRVALFLGNCWEFLAVTLACNRLGVLVVPIGIRQRRAELEFLLNNSGAKVVVFEAELTDEIPAAAEVPQLAHRFVAHGTAEGARPFEDLLAAEPANAPLAEMHEDDTAVILYTSGTTGKPKGAELTHLSILHSSYAFARAHELTERDRGLVAVPLSHVTGLVGVSYATIAAGGCVVLMRQAFKTVDFLALAARERITYSILVPAIYTLAVMHPEFDKHDLSAWRIGCFGGAPMPVPTIEMLAKRLPNLQLRNAYGATETTSPTTIMPQAYWRDHMDSVGQAVPYAHVRVLDADDNEVAPGEPGELLIAGPMVVPRYWQRPDANAKEFVNGYWRSGDIGSIDQDGFVRVFDRKKDMINRGGFKIFSAEVENVICGIDGVLETAIIGTPDPVLGERVNAIVVTSEGASLSERDVAAYCAARMSDYKVPESIIIRSEPLPRNANGKIQKTVLRETIADRAASYAREGHHHHHH | not soluble
10 | MSLAPANGLRIYALGGISEIGRNMTVFEYNNRLLIVDCGVLFPSSGEPGVDLILPDFGPIEDHLHRVDALVVTHGHEDHIGAIPWLLKLRNDIPILASRFTLALIAAKCKEHRQRPKLIEVNEQSNEDRGPFNIRFWAVNHSIPDCLGLAIKTPAGLVIHTGDIKLDQTPPDGRPTDLPALSRFGDEGVDLMLCDSTNATTPGVSGSEADVAPTLKRLVGDAKQRVILASFASNVYRVQAAVDAAVASNRKVAFNGRSMIRNMEIAEKLGYLKAPRGTIISMDDASRMAPHKVMLITTGTQGEPMAALSRMARREHRQITVRDGDLIILSSSLVPGNEEAVFGVINMLAQIGATVVTGRDAKVHTSGHGYSGELLFLYNAARPKNAMPVHGEWRHLRANKELAISTGVNRDNVVLAQNGVVVDMVNEGHHHHHH | soluble
11 | MSLAQAMKIAIVDDEQDMRQSISQWLALSGYDTETFASAEEALKVLGSEYPGIVISDIKMPGMDGMQFLKKLMGADSSLPVIMITGHGDVPMAVEAMRVGAFDFLEKPFNPDRMSDLAKRASNARRLTLDNRALRRELSDGGQIMKKLIGTSPVMERLREDILDLGQADGHVLIDGETGTGKTLVAHALHAVGSRAGKKFVLVSCSALEEEALAKRLFGPMIPEDAQLPAIEEARGGTLVLEDVESLSDALQAKLLSVMNQQGTPAETRIVAISNLQEAGKTSEDVLRPDLFYRLAALRLTMPPLRQRGEDILTLFTRLSEQFAEEYGCDAPQVSAQEAAQLLQAPWPGNVRQLINIAERAVLQARRGSGTIASLLMSDHEDEGHHHHHH | soluble
12 | MSLAQPCAIIDLETTGGNIARDRITEVGMVLIDGERVERLSWLVNPGQPIPPFIENMTGISNEMVAGAPPFSAQADELLDRLQGRLLLAHNARFDYGFLKNEFRRHGLRFQARALCTVKLSRRLYPQHFKHSLDSLIARHGIDMPERHRALADAEAVYRFIRIAEAELGEDRVAHEAAQLLSQPAELSSLPAELQQQIEEGHHHHHH | not soluble
13 | MSLASKSIRILSVEDHPVVREGLVSIIGSQPDMVLVAQATNGSDAIAQFRTHHPDITLMDLRLPGISGTDALISIRGEFPRARVIILTTSDSHTEIDRALRAGAAAYILKSMPMNEMLAVIRSVHAGARHIPQEVASRLAENIGEESLTSRELEVLHLIRDGHRNKQIADELSISETTVNFHIKNIVGKMGANDRTHAVTIAVRRGLLQEGHHHHHH | soluble
14 | MSLATEQIQHIAIVGCVHGKYREMYRQLSEYEKSTGKEISFVICTGDMQTLRYEADLVYLKVPPKYKQMGDFHLYYEGKEKAPYLTLFIGGNHESSNVLLHLYNGGFVCFNMYYLGVCSCININGLRIVGVSGIYKSFDEKKPYTYPPSPNDVVSLFHTRNYVIQMLSNLSQSSQIDISLSHDWPQGIVMKGNYKQLYRFQPGFKKDGASLGSPINKVILNTLKPKYWISGHMHCEYHAEEGPTHFIALGKIGYKNAISYLDLPLKQKTDLEYDKDWVCNLIMTWPAFSNKAQFPDLSYSISELLSKRTKELDKKIIELWEKYIGLKIIYDSEGHHHHHH | not soluble
15 | MSLATILIADDDPVTRTTLSIMLEDEDHEVYEAADSAETLDLLETTEPHVVFMDMVLPDCEAGEGITRVRRAAPAVTIIAMTGQPDTARFSAMARDAGCKECLIKPFEKNRVLALTRKVLAARGHKEGHHHHHH | not soluble
16 | MSLATVDKPLPPTDWKVVDNSKTYLKESAMRSFAFDDTLCTLAGKTGQSFIRFWVHENTIVLGTQDTRLPFIREAIEFIEQEGYRAVVRNSGGLAVCLDAGILNLSLVFPGEATFSIDEGYERMVTLVKAIFKEEQIEAGEIAGSYCPGSYDLSIDGKKFAGISQRRIRGGIAVQIYLCVQGSGSARAAFIRSVYNKAVQTSKPAFSYPDIKPEVMASLSELTNVPYSIETIIGRAKTAILESGGQLESAVLSPEEELLYETQLERMIDRHNRCLREGHHHHHH | soluble
